IC50 data for 58 molecules are collected here from US20220119492A1 (MEDIKINE, published 2022).

The test has as its target T1, human IL-2Rβ (CD122 protein, Fc Tag) (27-239) (human, UniProt P14784 27-239).
T1 construct: range 27-239; Bought protein; also called hu-IL-2Rβ subunit; IL-2Rβ subunit; not shown: Fc tag of the bought protein
T1 sequence (looked up): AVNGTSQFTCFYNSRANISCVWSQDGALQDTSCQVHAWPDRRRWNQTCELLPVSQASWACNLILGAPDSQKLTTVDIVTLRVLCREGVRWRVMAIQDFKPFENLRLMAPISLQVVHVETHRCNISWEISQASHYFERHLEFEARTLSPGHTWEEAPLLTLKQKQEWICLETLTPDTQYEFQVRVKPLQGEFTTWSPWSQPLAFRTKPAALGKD
Briefly: phage ELISA competition. The method in brief: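 Test ligands and a phage tracer competed for human IL-2Rβ-Fc in a binding ELISA, with IC50 obtained from the absorbance readings of the ligand dilution series. Without washing, 50 μL of phage tracer went on for 45 min at 4° C, and bound phage was developed with TMB for 1 to 15 min at 25° C before stop solution and absorbance at 450 nm.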

Bridge positions count the residues as written; N and C are the ends. Ends that are not written are not given here.

B1: SEQ ID NO 2847 (peptide)
peptide: WEWYDCLMAQVGELCDFEGN
The term IC50 denotes the point on the concentration scale where inhibition reaches its midpoint. As to B1, the IC50 was below 100 µM.

B2: SEQ ID NO 2818 (peptide)
peptide: WYPCWLAQVGELCDRE
modifications: disulfide 4-13 (inferred)
Consider B2, for which the IC50 is below 100 µM.

B3: SEQ ID NO 2798 (peptide)
peptide: EGHWYPCWIAQLGELCDLDW
Turning to B3, the IC50 was below 100 µM.

B4: SEQ ID NO 2831 (peptide)
peptide: HRGWVGWYPCEYALPGQLCDLE
Molecule B4 showed an IC50 below 100 µM.

B5: SEQ ID NO 2792 (peptide)
peptide: WYPCWVAQLGELCDLE
In turn, B5 displayed an IC50 below 100 µM.

B6: SEQ ID NO 2802 (peptide)
peptide: WYPCWVAKLGELCDLE
B6 yielded an IC50 below 100 µM.

B7: SEQ ID NO 2830 (peptide)
peptide: WEHEFTWYPCWIAQVGELCDMD
In the case of B7, the IC50 is below 100 µM.

B8: SEQ ID NO 2801 (peptide)
peptide: TNGVLDWWPCWMAQVGELCDLD
B8 returned an IC50 below 100 µM.

B9: SEQ ID NO 2790 (peptide)
peptide: MFRYYPCWIASIGELCDLEWGV
modifications: disulfide 7-16 (inferred)
With B9, the IC50 was below 100 µM.

B10: SEQ ID NO 2835 (peptide)
peptide: LPFQDCYIAQVGELCDLPGT
Take B10: the IC50 was below 100 µM.

B11: SEQ ID NO 2808 (peptide)
peptide: RDWWLPCEFALIGELCDLERSW
With B11, the IC50 was below 100 µM.

B12: SEQ ID NO 2834 (peptide)
peptide: DGWWPCWIAQVGELCDLEDPV
Molecule B12 had an IC50 below 100 µM.

B13: SEQ ID NO 2840 (peptide)
peptide: LESLDCFFARIGDLCEIWDV
Take B13: the IC50 is below 100 µM.

B14: SEQ ID NO 2795 (peptide)
peptide: QNASKGWYPCWIAHVGELCDWD
With B14, the IC50 is below 100 µM.

B15: SEQ ID NO 2829 (peptide)
peptide: SRVWHPCWLARVGELCDLEVSD
B15: the IC50 was below 100 µM.

B16: SEQ ID NO 2846 (peptide)
peptide: VTVQDCYFARVGDLCDLFSP
The molecule B16 registered an IC50 below 100 µM.

B17: SEQ ID NO 2838 (peptide)
peptide: VVCYACDIAHVGELCDLTCR
With B17, the IC50 is below 100 µM.

B18: SEQ ID NO 2836 (peptide)
peptide: RWMFDCLFARVGELCDIRPW
modifications: disulfide 6-15 (inferred)
The molecule B18 returned an IC50 below 100 µM.

B19: SEQ ID NO 2824 (peptide)
peptide: WYPCWMAKVGELCDME
Take B19: the IC50 is below 100 µM.

B20: SEQ ID NO 2800 (peptide)
peptide: WEKLQNWYPCWIAQMGELCDLE
B20 returned an IC50 below 100 µM.

B21: SEQ ID NO 2839 (peptide)
peptide: TPWYDCYIANVGDLCDFASA
B21: the IC50 is below 100 µM.

B22: SEQ ID NO 2788 (peptide)
peptide: WFPCWMAKVGDLCDVDEHQDPS
Molecule B22 returned an IC50 below 100 µM.

B23: SEQ ID NO 2832 (peptide)
peptide: WYPCWLAQLGELCDQDWDTPS
B23 gave an IC50 below 100 µM.

B24: SEQ ID NO 2799 (peptide)
peptide: WTGWSAFYPCSIANLGELCDLD
The molecule B24 returned an IC50 below 100 µM.

B25: SEQ ID NO 2842 (peptide)
peptide: GRYPDCYIAHVGELCEFYDG
The molecule B25 had an IC50 below 100 µM.

B26: SEQ ID NO 2845 (peptide)
peptide: VSRYDCYIAKVGELCDFFEF
On to B26, for which the IC50 is below 100 µM.

B27: SEQ ID NO 2791 (peptide)
peptide: ERRWYPCWLASVGELCDLDMGD
In the case of B27, the IC50 was below 100 µM.

B28: SEQ ID NO 2813 (peptide)
peptide: DKAGPNFYPCWLAHVGELCDQA
The molecule B28 returned an IC50 below 100 µM.

B29: SEQ ID NO 2794 (peptide)
peptide: SLAHRSWYPCWLAQVGELCDLD
For B29, the IC50 is below 100 µM.

B30: SEQ ID NO 2811 (peptide)
peptide: EWFHDCFLAKVGDLCDLFLW
Consider B30, for which the IC50 was below 100 µM.

B31: SEQ ID NO 2864 (peptide)
peptide: KWFHDCFLAKVGDLCDLFLW
B31: the IC50 is below 100 µM.

B32: SEQ ID NO 2821 (peptide)
peptide: WYPCWLAKVGELCDQE
For the molecule B32, the IC50 is below 100 µM.

B33: SEQ ID NO 2803 (peptide)
peptide: AYYPCELAQLGELCDLYNI
For the molecule B33, the IC50 was below 100 µM.

B34: SEQ ID NO 2796 (peptide)
peptide: HRWYPCWLAHLGELCDLDPMS
B34 registered an IC50 below 100 µM.

B35: SEQ ID NO 2810 (peptide)
peptide: SWHAETWYPCWLAQVGELCDLD
Turning to B35, the IC50 was below 100 µM.

B36: SEQ ID NO 2814 (peptide)
peptide: AGFRGRWWPCEYAQVGELCDLE
With B36, the half-inhibitory concentration (IC50) was below 100 µM.

B37: SEQ ID NO 2823 (peptide)
peptide: WWPCYLAQIGELCDLV
For B37, the IC50 was below 100 µM.

B38: SEQ ID NO 2826 (peptide)
peptide: YRWWYPCDIAQVGELCDLDYLL
The molecule B38 came in with an IC50 below 100 µM.

B39: SEQ ID NO 2833 (peptide)
peptide: RVRRHSWWPCEIAVVGELCDLE
For B39, the IC50 is below 100 µM.

B40: SEQ ID NO 2807 (peptide)
peptide: WWPCDFAQIGELCDLGPRFTGE
For the molecule B40, the IC50 was below 100 µM.

B41: SEQ ID NO 2844 (peptide)
peptide: LVYYDCYMAQVGELCDLPSL
modifications: disulfide 6-15 (inferred)
Regarding B41, the IC50 is below 100 µM.

B42: SEQ ID NO 2819 (peptide)
peptide: RGVYFPCWLAKVGDLCDSDEF
For B42, the IC50 is below 100 µM.

B43: SEQ ID NO 2815 (peptide)
peptide: WFPCWLAKVGELCDRDDLAGPS
B43 came in with an IC50 below 100 µM.

B44: SEQ ID NO 2837 (peptide)
peptide: GGYYDCLIAEVGELCDMPGQ
B44 gave an IC50 below 100 µM.

B45: SEQ ID NO 2812 (peptide)
peptide: SGKTQMWNPCYVAKVGELCDLV
Consider B45, for which the IC50 was below 100 µM.

B46: SEQ ID NO 2817 (peptide)
peptide: KGSSWFPCYFAQVGDLCDLY
modifications: disulfide 8-17 (inferred)
As for B46, the IC50 is below 100 µM.

B47: SEQ ID NO 2828 (peptide)
peptide: WLPCWIAKIGDLCDLD
B47 came in with an IC50 below 100 µM.

B48: SEQ ID NO 2841 (peptide)
peptide: WQIFDCYLAQVGELCDLQDT
modifications: disulfide 6-15 (inferred)
B48: the IC50 was below 100 µM.

B49: SEQ ID NO 2822 (peptide)
peptide: RYVPDCLKAQVGDLCDFFAW
Regarding B49, the IC50 is below 100 µM.

B50: SEQ ID NO 2797 (peptide)
peptide: FYPCWIAFVGELCDLE
For B50, the IC50 is below 100 µM.

B51: SEQ ID NO 2806 (peptide)
peptide: WWPCEIAQIGELCDLEWVRHAE
modifications: disulfide 4-13 (inferred)
For B51, the IC50 is below 100 µM.

B52: SEQ ID NO 2816 (peptide)
peptide: WWPCEWARIGELCDLE
modifications: disulfide 4-13 (inferred)
On to B52, for which the IC50 was below 100 µM.

B53: SEQ ID NO 2793 (peptide)
peptide: RWDYWPCYIAQVGELCDLEVYE
B53 showed an IC50 below 100 µM.

B54: SEQ ID NO 2825 (peptide)
peptide: QITDSGWYPCWVAKVGELCDMD
modifications: disulfide 10-19 (inferred)
The molecule B54 registered an IC50 below 100 µM.

B55: SEQ ID NO 2820 (peptide)
peptide: RAWWWPCELAQVGELCDLEPSS
Take B55: the IC50 was below 100 µM.

B56: SEQ ID NO 2789 (peptide)
peptide: MGDSSSWFPCWMAQLGELCDME
As to B56, the IC50 was below 100 µM.

B57: SEQ ID NO 2805 (peptide)
peptide: NDHTAWWPCYFAQVGDLCDLV
Take B57: the IC50 is below 100 µM.

B58: SEQ ID NO 2848 (peptide)
peptide: WAFYDCRNAQVGDFCDLWEF
B58: the IC50 was below 100 µM.
